Assay results from patent publication US20150203825A1, “Laccase of Podospora Anserina and Uses of Same” (priority 2012, published 2015).

Columns and labels:
[1] = substrate: CCn1c(=NN=c2sc3cc(S(=O)(=O)O)ccc3n2CC)sc2cc(S(=O)(=O)O)ccc21; assay: purified protein, by the assay type; conditions: other: ABTS 0 to 1.5 mM, 0.1 M citrate/phosphate buffer, pH 3.4, 37° C.
[2] = substrate: COc1cc(/C=N/N=C/c2cc(OC)c(O)c(OC)c2)cc(OC)c1O; assay: Enzymatic test, oxidation of syringaldazine (SGZ) (stationary-phase kinetics); format: biochemical, Podospora anserina; conditions: other: SGZ 0 to 50 μM (diluted in methanol), citrate-phosphate 50 mM buffer, pH 7, 37° C., 530 nm
Experimental: The enzymatic tests are carried out using a Varian spectrophotometer in a 0.1 M citrate/phosphate buffer at 37° C. in a volume of 3 ml by monitoring the oxidation of various substrates at a given wavelength as a function of time. The specific activity of the enzyme is expressed in μmol of substrates oxidized per minute and per mg of protein.
The experiments are carried out at 37° C. on a Varian spectrophotometer in a citrate-phosphate 50 mM buffer, pH 7. The concentration of SGZ, diluted in methanol, varies in the test from 0 to 50 μM. The test, initiated by the addition of enzyme, consists in monitoring the oxidation of the SGZ at 530 nm by colorimetric change (ε530nm=64 mM^−1 cm^−1).

[3] = Enzymatic activity (SGZ oxidation) in the presence of NaCl; format: biochemical; conditions: 150 mM of NaCl, SGZ oxidation at 530 nm, 37° C., 50 mM phosphate-citrate buffer, pH 7
Experimental: In order to verify the influence of sodium chloride (present in a physiological medium) on the activity of the laccase, increasing concentrations of NaCl were added to the activity test consisting in monitoring the oxidation, at 530 nm, of the SGZ at 37° C. in a 50 mM phosphate-citrate buffer, pH 7.

[4] = Electrochemical measurements, enzymatic electrode with redox polymer, reduction of O2; conditions: pH 7, in the presence of Cl
Excerpt: At pH 7 and in the presence of Cl, the catalytic current for the reduction of O2 is 40% greater for the electrode modified with the novel enzyme. In addition, the stability over time is 200% greater.

catalytic current for the reduction of O2, greater than electrode with laccase of Trametes versicolor [4]	Molecule	Km [1]	kcat [1]	Km [2]	kcat [2]	oxidation activity still exhibited in the presence of NaCl [3]	stability over time, greater than electrode with laccase of Trametes versicolor [4]
	Podospora anserina laccase, SEQ ID No. 3 (Podospora anserina S mat+) (protein, purified) SVARKDWESPTYSWLYQFPLPIPPVKTPKLTVTNLVTGNPIHYYEVYINRFTQQVYPNKGPATLVGYDGISPGPTFIVERGHEAVVRFVNNASIENSVHLHGSYSRAPWDGWAEDVTMPGEFKDYYYPNQQAARFLWYHDHAFMHTAENAYFGQAGAYIIHDPAEDALNLPSGYGVHDIPLVLSSKQYNNNGSLFTTNGETDSLFGDVIHVNGQPWPYFNVEPRKYRLRFLDAAVSRTFKLYFQRQTGSSAKIPFQVIATDAGLMASPATTNDLYISMGERYEVVFDFSPFAGQNITLRNTDDVGQDDDYLHTNKVMRFIVGNTPVTDTSSIPSTLATVDWPTSDGTGVDRHFKFDRSNGEWQINGVVFADVNNRVLANVPRGKVEIWELENGGGGWSHPIHIHLVDFKVLWRSNDDGRPVYNYEAQGLKDVVWLAPNEIVRVEAHYAPWDGVYMFHCHNLIHEDHDMMAAFNVTALTDLGYNETAFRDPMEARWRAEPVTAAKFTTAAITEKIQFMAGLQPYNNVEEVLEVLDEYWATHSKRDAQDPAPKTRRMRIEGGKVKEVR	307 µM	1372 s⁻¹	10.9 µM	1.3 s⁻¹		
40%	laccase of SEQ ID No. 3: Podospora anserina laccase of SEQ ID No. 1 with an additional N-terminal serine, expressed in Pichia pastoris from the pFD56 vector (protein, listed as Podospora anserina) SVARKDWESPTYSWLYQFPLPIPPVKTPKLTVTNLVTGNPIHYYEVYINRFTQQVYPNKGPATLVGYDGISPGPTFIVERGHEAVVRFVNNASIENSVHLHGSYSRAPWDGWAEDVTMPGEFKDYYYPNQQAARFLWYHDHAFMHTAENAYFGQAGAYIIHDPAEDALNLPSGYGVHDIPLVLSSKQYNNNGSLFTTNGETDSLFGDVIHVNGQPWPYFNVEPRKYRLRFLDAAVSRTFKLYFQRQTGSSAKIPFQVIATDAGLMASPATTNDLYISMGERYEVVFDFSPFAGQNITLRNTDDVGQDDDYLHTNKVMRFIVGNTPVTDTSSIPSTLATVDWPTSDGTGVDRHFKFDRSNGEWQINGVVFADVNNRVLANVPRGKVEIWELENGGGGWSHPIHIHLVDFKVLWRSNDDGRPVYNYEAQGLKDVVWLAPNEIVRVEAHYAPWDGVYMFHCHNLIHEDHDMMAAFNVTALTDLGYNETAFRDPMEARWRAEPVTAAKFTTAAITEKIQFMAGLQPYNNVEEVLEVLDEYWATHSKRDAQDPAPKTRRMRIEGGKVKEVR					70%	200%
